In the DeepSol protein solubility set:

Assay: soluble on expression in E. coli; label from the status in PepcDB or PDB records

Sequence | soluble on expression in E. coli
MGSDKIHHHHHHMKISPLCPSCLLGRVYYEAKLVTDDEDLISQCVDESLKILAENYSSRPINAHLATRIHRRVYEILGVEDPYAEVKARANEVARQVLPLAKEIVEGSDDPFKTAVIVSIVGNNFDYGVQGHKVVEEEFRDFLKRKVQEGLKINDTERIKELSSGKVVYLTDNAGEIFFDTLLMKEIKRRCEKLTAVVRGRPIISDATIEDARLARVDKIADELLTNGKGAIGIIMDELPDETRKALEEADLIVAKGMANYECLSDGSLKPIAFLLTAKCEPVARDIGVNVGDMVAKVVE | soluble
SLSANLVGITGIARRLVQDGSIEEATARTAQNQAMAAKVPLPQWLIDKKLVSAAKLAAANALEFGMPLLDVSAFDHNHNAMNLVDEELLQKHRVLPLFKRGNRLFVGISNPTQTQALDDIKFHTNLVVEPILVDEDQIRRTLEQWQSRKG | soluble
HSEEAAYYAVEIGRMFDLGDEKLEKLYWAGLLHDIGKIYVPQVVLNKTSKLDEREFELIKIHPVRGYELVKEIEGFEDVAIWIRHHHERWDGKGYPDGLKGEEIPFEARVLCVADSYQAM | soluble
MTKAADDNIIVGLDIGTATVSALVGEILPDGQINIIGAGSSPSRGMDKGGVNDLESVVKSVQRAIDQAELMAECQISRVFISLSGKHIASRIEKGMGTISDEEVSQEDMDRAIHTAKSIKIGDEQ | not soluble
MGGSHHHHHHGMASALELLSPQSPFRVDRGEHLPFLVKGARYTLVPAGQEGGGQTWRPLPGTTSPEDSSHLHRGQKKGAALGMAVYPYNCQAHAP | not soluble
MGHHHHHHSHMKVQGAGQLRLSIDAQDRVLLLHIIEGKGLISKQPGTCDPYVKISLIPEDSRLRHQKTQTVPDCRDPAFHEHFFFPVQEEDDQKRLLVTVWNRASQSRQSGLIGCMSFGVKSLLTPDKEISGWYYLLGEHLGRTKHLKVARRRL | soluble
MSEESNDDKKPTTKFELERETELRFEVEASQSVQLELLAGMAEIFGTELTRNKKFTFDAGAKVAVFTWHGCSLQLSGRTEVAYVSKDTPMLLYLNTHTALEQMRRQAEKEEERGPRVMVVGPTDVGKSTVCRLLLNYAVRLGRRPTYVELDVGQGSVSIPGTMGALYIERPADVEEGFSIQAPLVYHFGSTTPGTNIKLYNKITSRLADVFNQRCEVNRRASVSGCVINTCGWVKGYGYQALVHAASAFEVDVVVVLDQERLYNELKRDLPHFVRTVLLPKSGGVVERSKDFRRECRDERIREYFYGFRGCFYPHAFNVKFSDVKIYKVGAPTIPDSCLPLGMSQEDNQLKLVPVTPGRDMVHHLLSVSTAEGTEENLSETSVAGFIVVTSVDVEHQVFTVLSPAPRPLPKNFLLIMDIRFMDLK | soluble
ADLGTENLYFQSMKPSPEEAQLWSEAFDELLASKYGLAAFRAFLKSEFCEENIEFWLACEDFKKTKSPQKLSSKARKIYTDFIEKEAPKEINIDFQTKTLIAQNIQEATSGCFTTAQKRVYSLMENNSYPRFLESEFYQDLCKKPQ | soluble
SLSRRGIDFLNDWIAEHHPDTLTEDPTAIADLADQLMAAAEKQGLSRRDISEEVGSVFQVILEAMQNRSGGRLYSSRWG | soluble
SAQQRALPQSKETLLQSYNKRLKDDIKSIMDNFTEIIKTAKIEDETQVSRATQGEQDNYEMHVRAANIVRAGESLMKLVSDLKQFLILNDFPSVNEAIDQRNQQLRTLQEECDRKLITLRDEISIDLYELEEEYYSSRYK | soluble
MSLSNNTINIALIGYGFVGKTFHAPLIRSVPGLNLAFVASRDEEKVKRDLPDVTVIASPEAAVQHPDVDLVVIASPNATHAPLARLALNAGKHVVVDKPFTLDMQEARELIALAEEKQRLLSVFHNRRWDSDYLGIRQVIEQGTLGAVKHFESHFDRFRPEVRVRWREQNVPGSGLWFDLGPHLIDQALQLFGLPQSVQGNIATLRDGAEINDWAHVVLNYPAHKVILHCSMLVAGGSSRFTVHGDKGSVIKARADQQESQLLAGVVPGSADWGQDDDPLVIYDASLQAHAQATPQGDQRQYYMLIRDALKGQIANPVPPVEALAVMAVLEAAVRSAESGMVQTLDLSDDERNTLREGHHHHHH | soluble
MASSIDPLTRLHGILSSYLSEVLGVDRSVVERLLAPPPRKEYGDLGFPLMRFARSSNASADSIVESLRGKLWERGITWASPTLEAGYLNIVFDVEKLGDEVFRLLASGWRPSTARTSRPETIVVEHTSANPIHPLHLGHARNSSLGDALARLLEARGHRVNRRFYVDDVGRQAVVASLGFKLSGVTPRELASRMGVKVDHAVGWVYAVTHNALETVTARKRGDTSKVDEALSTLARLKERGDREVFDRILEAVGSLDDPEGLVSEMMRKYERGEEPEKSLIRGVVSAVLEGFRETLGRFGVDFDDWDWESDLLWSGLVNKIIEEARRSPFLTTHKDAIALDIPRIVREVLARDPEAASTIKLPRSLEIPPLILVRSDGTTLYTTRDLAYSVYKFRVTGADRVINVIGADQRLPQLQIRLALLGLGYRREALNMMHYDYEIVSLPGRRMSSRRGEYVTLDELLEMAKARSVREVESRNPGADRDWIESTAEKIAVGAVRFALVRPGRLKPITLDVERILDLKENTAPYLQYTYARASSILEKHGEIDYLKAHPASLEEGSRRELFVEALRFPLVSAKAADDLAPEDLASYLLRLADMFNSWYQKDSVIHEEWEGARHAKAALVLLVKSVIGEGLRLLGVEPLEKM | soluble
MAHHHHHHMNAVKEADVVFLEAYTSFLINSNAEKLAGIYGKPVILADREMVESGAVLDDAKVKKVVLLVVGDVFGATTHSDLIVRCNRQGIESKIVHNASIINAVGCCGLQLYRFGQVISLCFWTETWRPDSWYERLQSNRAAGIHTLVLLDIKVKEISDENLARGRKIYEPPRYMTIRQAIEQILEVEGYKQGGAVAADGSTFAVGLARVGSESQQVVAGTMKDLLSVDFGAPLHSLVIAGDVHDCEQEHVDLFRMAGQ | not soluble
GAEPVDEEAPLLMKNQKDFSSYLMGRQSIYKRHIIEDFVRKMLPGISEHKAASINNAVYSNFVREYKMLVKPEVSKKNYSRDVPFPDIELSLLPGAKEILEKSRNANSRVILISNRGHGDLENEINHLGMMHYFDVVSGAEEVTLEKSHLPPSQMPEDLQKRLINSLNGSDEEALRATLSEAAIYAHPDSTTIERIDKKPDSTRLAESLERLSVQPNVPITSYGDQPSDIKQLKSVAEPKSRVLKGVIVNAQRDDVGREIDVDGVPTRVVSKITEL | not soluble
MLRRSSVVLARFQPYSMAVQTRFKWRHKETDRWRRLMDATCFQVDWLGQTAGPNFAQYSGHWTHVITCAHVITPWDYPNYYPPQGPTRFVSHITLADTMTQIRLVSMQGNAVYKHFTSNQHVFVHSNPRLDLCVLHPEQNLKRSGEMKMMWMQNEGYISRPRLEINETLKVGDYVWVYGMSAHESLFDEEKGPEPLMIPTGVRARVHAVTREHFFLDTTALEDNPDRGRIQMGMCGSVVMRNGKCVGMLTATVHEESDCKELAGTAMCTYSSDVFEFLLEVEKQMKNPVARQSQEETRFEQRRRAEGGVKEHKHWELDESRTARHIPVPVSLWHMEEKWVTEEDYMNSAVFGRSGAFNQETQESALGYDMNTAKTNGDRPGDIDSFMSTTTTGKPVMQGERKDYSPTGVYANVEEFKNKDVWDYNVSSEMRSLFNETVDSKDAESLNMMRKSLENIRAQRAMEKMKETVMNRTEPGFDPLKGYGHYGGSADAGAANFNPEYASAHKGSGDAYSYAQAAQQAAREQPGDHASPASTPPPSPPPPNESVIDRKKRERREAEAKYQEELRRRHGQRAVPFGDEDLSGFWERR | not soluble
MGSDKIHHHHHHMNKPERPSHLAAARREPTHYLTADERAAKGRALRDTVPRGSQSGWQAPEDRRDPIELLNESNAGRILDLVPIRYGRMAASPFAFYRGSASLMAADLATTPSSGIRVQACGDAHLMNFGGFATPERNIIFDINDLDETLPAPFEWDLKRLAASLAIAAEHLALPKSDAARVVTDVVREYRERMFNYGWMRALDVWYDRIDLQKYEDRSGDPEIVAAARKRLAQRIEGERRKTVPDYLYPKLVSEEGAKPRIKDEPPLIFHPTEELAPGMGSDYAQAIASYRSSLAEHVRVLFDRFHFFDMAIKVVGVGSVGTMCGVGLFLAADNDPLFLQVKEARASVLEPYAGKSLHANHGERVIAGQRLMQAASDVFLGWTRGENGRDFYLRQLRDMKLSAVIEDWDTGMLRQYGRMCAHALARAHARSGDAAMMAGYMGSGQAFDDAICEFATEYCSQNRSDFRTFVAAIREGRIEARLEAN | not soluble
MIIGSRRARSDKYVKIAHLMQCTQPWFNHFLPEPESPQASTYKMLKPVSWLPRPVKSVSFYPSRRTAVARNGHNLRLQWRGPLPELHWHSRSLQHTQH | not soluble
GPGSMSSFAPNVKICEDISHISSAARDIILAAIDARVDKSAPVVLALSGGSTPKRLYEELHEKDLTLLQQHAVQFILGDERLVATDDEQSNFSMATKALLRDVPISDVIAIEPSAALATSKDEKGGVDGAWAVAQDYEKKLRNRLPCTQVNGTDMSVPIVDIVLLGFGADGHTASIFPDSVAATDESHVVSVSFPSPTMNPKVWRVTLSKTVIQHAKHVVVLACGKDKNWVVHGVLAEAPTGPLPVSRFLRECRGSVTMLLDAGSGEGLSA | soluble
MELTIMSQLIDRRQNAGKKSTVNRQRFLRRYKSQIKKAVSEAVGKRSITEIDQGEQITIPAKDIYEPQFHRGHGGHIERVLPGNDNFIAGDRIKRPGGGGAGGAGGNASDSGEGEDNFVFELSREEFLELYFEDLELPDLVKKELARISTYKTVRAGVTTSGIPNNINVLRSMKQATGRRVALASPYKKRLKEAEEELERLKQLANPDKIDLLKLERDIEFFKKKIQTVPFIDTIDLRYNHRVRVPSPSTQAVMFCVMDVSGSMDEAKKDIAKRFFILLYMFLTKNYEKIELVFIRHHTSAKEVNEEEFFYSRETGGTVVSSALELLNTIIEARYPPQAWNIYVAQASDGDNWNADSPYCQELLQEKIMPLLQYFAYIEIMPRHHQSLWEVYQQVKERYPNFAMENIDNVADIYPVFRELFKRKTVAAALEHHHHHH | not soluble
MMTKYGVVGTGYFGAELARFMSKVEGAKITAIYDPVNAAPIAKELNCVATATMEALCSHPDVDCVIIASPNYLHKAPVIAAAKAGKHVFCEKPIALNYQDCKDMVDACKEAGVTFMAGHVMNFFHGVRHAKALIKAGEIGEVTQVHTKRNGFEDVQDEISWKKIRAKSGGHLYHHIHELDCTLFIMDETPSLVSMAAGNVAHKGEKFGDEDDVVLITLEFESGRFATLQWGSSFHYPEHYVLIEGTTGAILIDMQNTAGYLIKAGKKTHFLVHESQAEDDDRRNGNISSEMDGAIAYGKPGKRTPMWLSSIMKLEMQYLHDVINGLEPGEEFAKLLTGEAATNAIATADAATLSSNEGRKVKLTEILGLEHHHHHH | soluble
MDYRIRTSRDEDAALLPAIERSAGESFRLLPELAWIADAGVAGVDFHRRLIERGSHWLAEDADGQPVGFLAAERCADELHIAELSIAQAHQQQGLGRRLLERAVTYAHASHCRALTLTTFCDVPWNAPFYARLGFQRLTWQEAGERLRAILGHEQEIGFAADSRCAMRLVL | not soluble
MLKVIRRFFTAKQRQTPAKQDVELESGRGWAGLEEWRLVAKYSVGPVEYYLYRDNSEGVRLTFKEPPEPGEAVVKEIIAGNIEPVGEGERYHAEKRMSGYGRLYPLIIDGHIEEIAFEGPGRGVSVIHSLVPGRWIDVDLKLGEDEANSLALQLARKAGRSLSLAQPLAEGLTGEGHRVAVTFSREVSRFGSSFVIRKYPEKPVTMADLVASRVLTPLQAAYLWLLVESQQFIVVSGPMGSGKTTLLQALAGLIPPFYRVITIEDTPEIRLYNRHWDSLVTRPPLPGESMVEVDLEALLRFALRRRAEYIIVGEVRGREARLLAQAAASGHGSMTTMHGDTPEGVILRLQLEPISLPPVFLSLIGAIVMLRRLPGYGGAVRRRVVSITEIEGGEAVDVFAWDPKGDLVSPDNPRDIVESSFRLREAVSRIPDLITDLEAELSERAGLLEKLAGSPPEVFHKALARFYSERYGRV | soluble
